The chains are these.
B1: TPR t1 (parent)
chain: GACCAAUCUGCCCUCAGAGCUCGAGAACAUCUUCGGAUGCAGAGGAGGCAGGCUUCGGUGGCGCGAUAGCGCCAACGUCCUCAACCUCCAAUGCAUCCCACCACAUGAUGAUGCCUGAAGAGCCUUGGUUUUUUG

Variants of B1 are the subject of the data set. The experiment in a line: polymerase ribozyme fitness, log enrichment relative to wild type (log ratio); higher = more active; in vitro selection for triplet polymerase activity. Put shortly: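 Frozen incubation at −7 °C formed the core of a single, triplicate in vitro selection round applied to PCR-built, transcribed mutant libraries of each subunit of a heterodimeric triplet polymerase ribozyme. Extended constructs were gel-excised, captured with streptavidin beads and amplified by RT-PCR, and input and output libraries were Illumina-sequenced with a filter of ≥10 input reads and ≥1 read per output. Fitness is the logarithm of genotype enrichment relative to wild-type enrichment, with inverse-variance-weighted replicate averaging, and the logarithm is base 2.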
GACCAAUCUGCCCUCAGAGCUCGAGAACAUCUUCGGAUGCAGAGGAGGCAGGCUUCGGUGGCGCGAUAGCGUCAACGUCCUGAACCUCCAAUGCAUCCCACCACAUGAUUAUGCCUGAAGAGCCUUGGUUUUUUG [C72U C82G G110U]: the “polymerase ribozyme fitness (log ratio)” value is -2.93.

Consider GACCAAUCUGCCCUCAGAGCUCGAGAACAUCUUCGGAUGCAGAGGAGGCAGGCUUCGGUGGCGCGAUAGCGUCAACGUCCUCAACGUCCAAUGCAUCCCACCACAUGAUGAUGCCUGAAGAGCCUUGGUUUUUUG [C72U C86G], for which the “polymerase ribozyme fitness (log ratio)” value was -0.742.

Take GACCAAUCUGCCCUCAGAGCUCGAGAACAUCUUCGGAUGCAGAGGAGGCAGGCUUCGGUGGCGCGAUAGCGUCAACGUCCUCAACCUACAAUGCAUCCCAACACAUGAUGAUGCCUGAAGAGCCUUGGUUUUUUG [C72U C88A C101A]: the “polymerase ribozyme fitness (log ratio)” value was -1.43.

In the case of GACCAAUCUGCCCUCAGAGCUCGAGAACAUCUUCGGAUGCAGAGGAGGCAGGCUUCGGUGGCGCGAUAGCGUCAACGUCCUCAAUCUCCAAUGCAUCCCACCACAUGAUGAUGCCUGAAGAGCCUUGGUUUUUUG [C72U C85U], the “polymerase ribozyme fitness (log ratio)” value is -1.48.

Turning to GACCAAUCUGCCCUCAGAGCUCGAGAACAUCUUCGGAUGCAGAGGAGGCAGGCUUCGGUGGCGCGAUAGCGUCAACGUCCUCAACCUCCACUUCAUCCCACCACAUGAUGAUGCCUGAAGAGCCUGGGUUUUUUG [C72U A91C G93U U126G], the “polymerase ribozyme fitness (log ratio)” value is -4.23.

Turning to GACCAAUCUGCCCUCAGAGCUCGAGAACAUCUUCGGAUGCAGAGGAGGCAGGCUUCGGUGGCGCGAUAGCGUCAACGUCCUCAACCUCCAAUGCAUCCUACCACAUGAUGAUGCCUGAAGAGCCUUGGUUUUUUG [C72U C99U], the “polymerase ribozyme fitness (log ratio)” value is -3.71.

As for GACCAAUCUGCCCUCAGAGCUCGAGAACAUCUUCGGAUGCAGAGGAGGCAGGCUUCGGUGGCGCGAUAGCGGCAACGUCCUCAACCUCCAAUGCAUCCCACCACAUGAUGAUGCCUGAAGAGCCUUGGUUGUUUG [C72G U131G], the “polymerase ribozyme fitness (log ratio)” value is -0.31.

As to GACCAAUCUGCCCUCAGAGCUCGAGAACAUCUUCGGAUGCAGAGGAGGCAGGCUUCGGUGGCGCGAUAGCGGCAACGUCCUCAACCUCCAAUGCAUCCCACCACAUGAUGAUGCCUGAAGAGCCGUGGUUUUUUG [C72G U125G], the “polymerase ribozyme fitness (log ratio)” value is -1.12.

With GACCAAUCUGCCCUCAGAGCUCGAGAACAUCUUCGGAUGCAGAGGAGGCAGGCUUCGGUGGCGCGAUAGCGUCAACGUCCUCAACCUCCAAUGCAUCCCACCACAUGAUGAUGCCUGAAGAGCCUUGGUUUUUUG [C72U], the “polymerase ribozyme fitness (log ratio)” value was -0.393.

Consider GACCAAUCUGCCCUCAGAGCUCGAGAACAUCUUCGGAUGCAGAGGAGGCAGGCUUCGGUGGCGCGAUAGCGUCAACGUCCUCAACGUCCAAUGCAUCCCACCACAUGAUGAUGCCUGAAGAGCCUGGGUUUUUUG [C72U C86G U126G], for which the “polymerase ribozyme fitness (log ratio)” value is -3.16.

With GACCAAUCUGCCCUCAGAGCUCGAGAACAUCUUCGGAUGCAGAGGAGGCAGGCUUCGGUGGCGCGAUAGCGUCAACGUCCUCAACCUCCAAUGCAUCCCACCACAUGAUGAUGCCUGCAGAGCCUUGGUUUUUUG [C72U A118C], the “polymerase ribozyme fitness (log ratio)” value is -2.89.

In the case of GACCAAUCUGCCCUCAGAGCUCGAGAACAUCUUCGGAUGCAGAGGAGGCAGGCUUCGGUGGCGCGAUAGCGUCAACGUCCUCUACCUCCAAUGCAUCUCACCACAUGAUGAUGCCUGAAGAGCCUUGGUUUUUUG [C72U A83U C98U], the “polymerase ribozyme fitness (log ratio)” value was -0.271.

On to GACCAAUCUGCCCUCAGAGCUCGAGAACAUCUUCGGAUGCAGAGGAGGCAGGCUUCGGUGGCGCGAUAGCGUCAACGUCCUCAACCUCCAGUGCAUCCCACCAAAUGAUGAUGCCUGAAGAGCCUUCGUUUUUUG [C72U A91G C104A G127C], for which the “polymerase ribozyme fitness (log ratio)” value was -4.76.

With GACCAAUCUGCCCUCAGAGCUCGAGAACAUCUUCGGAUGCAGAGGAGGCAGGCUUCGGUGGCGCGAUAGCGGCAACGUCCUCAACCUCCAAUGCAUCCCACCACAUGAUGAAGCCUGAAGAGCCUUGGAUUUUUG [C72G U112A U129A], the “polymerase ribozyme fitness (log ratio)” value was 0.0162.

On to GACCAAUCUGCCCUCAGAGCUCGAGAACAUCUUCGGAUGCAGAGGAGGCAGGCUUCGGUGGCGCGAUAGCGUCAACGUCCUAAACCUCCAAUGCAUCCCACCACAUGAUGAUGCAUGAAGAGCCUUGGUUUUUUG [C72U C82A C115A], for which the “polymerase ribozyme fitness (log ratio)” value is -1.79.

As to GACCAAUCUGCCCUCAGAGCUCGAGAACAUCUUCGGAUGCAGAGGAGGCAGGCUUCGGUGGCGCGAUAGCGGCAACGUCCUCAACCGCCAAUGCAUCCCACCACAUGAUGAUGCCUAAAGAGCCUUGGUUUUUUG [C72G U87G G117A], the “polymerase ribozyme fitness (log ratio)” value is -2.09.

Regarding GACCAAUCUGCCCUCAGAGCUCGAGAACAUCUUCGGAUGCAGAGGAGGCAGGCUUCGGUGGCGCGAUAGCGUCAACGUCCUCAACAUCCGAUGCAUCCCACCACAUGAUAAUGCCUGAAGAGCCUUGGUUUUUUG [C72U C86A A90G G110A], the “polymerase ribozyme fitness (log ratio)” value is -1.38.

For GACCAAUCUGCCCUCAGAGCUCGAGAACAUCUUCGGAUGCAGAGGAGGCAGGCUUCGGUGGCGCGAUAGCGUCAACGUCCUCAACCUCCAAUGCCUCCCACCACAUGAUGAUGCCUGAAGAGCCUUGGUUUUUUG [C72U A95C], the “polymerase ribozyme fitness (log ratio)” value is -0.818.

On to GACCAAUCUGCCCUCAGAGCUCGAGAACAUCUUCGGAUGCAGAGGAGGCAGGCUUCGGUGGCGCGAUAGCGUCAACGUCCUCAACCUCCAAUGCAUCUCACCACAUGAUGAUGCCAGAAGAGCCUUGGUUUUUUG [C72U C98U U116A], for which the “polymerase ribozyme fitness (log ratio)” value is -4.95.

Regarding GACCAAUCUGCCCUCAGAGCUCGAGAACAUCUUCGGAUGCAGAGGAGGCAGGCUUCGGUGGCGCGAUAGCGUUAACGUCCUCAACCUUCAAUGCAUCCCACCACAUGAUGAUUCCUGAAGAGCCAUGGUUUUUUG [C72U C73U C88U G113U U125A], the “polymerase ribozyme fitness (log ratio)” value was -5.18.

As to GACCAAUCUGCCCUCAGAGCUCGAGAACAUCUUCGGAUGCAGAGGAGGCAGGCUUCGGUGGCGCGAUAGCGUCAACGUCCUUAACCUCCAAUGCAUCUCACCACAUGAUGAUGCCUGAGGAGCCUUGGUUUUUUG [C72U C82U C98U A119G], the “polymerase ribozyme fitness (log ratio)” value was -0.0419.

The values above are taken from the RNAGym collection of RNA variant scans (doi:10.1073/pnas.2313332121).
